In patent US12397035B2, “Compositions and methods for treatment” (Celosia Therapeutics Pty Ltd, priority 2019, dated 2025):

Tests used:
Type in all cases: binding
TDP-43 = biological target: T1, TDP-43 (Homo sapiens, UniProt Q13148); assay: Co-immunoprecipitation of Fx (α-helix 6 of 14-3-3θ) with TDP-43; details: Fx expressed in cells, FIG. 5
T1 construct: expressed in transfected cells; host or cells: 293T HEK cells
Protocol: Immunoprecipitation. Immunoprecipitation was performed as previously described (Ittner et al., 2009, J Biol Chem 284: 20909-20916). Briefly, 293T HEK cells were co-transfected with variants of TDP-43 in pcDNA3.1/V5 and/or 14-3-3 isoforms/variants. Cells were lysed in RIPA buffer. Equal amounts of proteins were incubated overnight with 1 ul of V5 antibody (Life Technologies) and precipitated using magnetic Protein G beads (Life Technologies). Co-immunoprecipitation was further confirmed by Western blotting using myc antibodies.
Western blotting. Western blotting was performed as previously described (Ke et al., 2012, PLoS One 7: e35678). Primary antibodies used for immunoblotting were human TDP-43, c-terminal TDP-43, pan-TDP-43 (Proteintech), 14-3-3θ (Abeam), V5, myc (Life Technologies), phospho-TDP-43 S409/410 (Cosmobio), GAPDH (Merck-Millipore).
Cell culture and staining. All immunorecipitation experiments were carried out in 293T HEK cells. Cells were maintained in DMEM containing 10% fetal bovine serum (FBS) as per standard protocols. SH-SY5Y cells were maintained in DMEM/F-12 containing 10% FBS and used for 14-3-3θ overexpression or knockdown. Stable overexpression and knockdown of 14-3-3θ were achieved through lentiviral transduction. For immunocytochemistry, cells were fixed in 4% PFA and blocked with 3% heat-inactivated goat serum/2% BSA. […]

FOXO1 = biological target: T2, FOXO1 (Homo sapiens, UniProt Q12778); assay: Co-immunoprecipitation of Fx with known 14-3-3θ partner FOXO1; details: data not shown
T2 construct: host or cells: 293T HEK cells

[1] = biological target: T3, YES-associated protein (YAP) (Homo sapiens, UniProt P46937); assay: Co-immunoprecipitation of Fx with known 14-3-3θ partner YAP; details: data not shown
T3 construct: host or cells: 293T HEK cells
T3 sequence (P46937 whole entry): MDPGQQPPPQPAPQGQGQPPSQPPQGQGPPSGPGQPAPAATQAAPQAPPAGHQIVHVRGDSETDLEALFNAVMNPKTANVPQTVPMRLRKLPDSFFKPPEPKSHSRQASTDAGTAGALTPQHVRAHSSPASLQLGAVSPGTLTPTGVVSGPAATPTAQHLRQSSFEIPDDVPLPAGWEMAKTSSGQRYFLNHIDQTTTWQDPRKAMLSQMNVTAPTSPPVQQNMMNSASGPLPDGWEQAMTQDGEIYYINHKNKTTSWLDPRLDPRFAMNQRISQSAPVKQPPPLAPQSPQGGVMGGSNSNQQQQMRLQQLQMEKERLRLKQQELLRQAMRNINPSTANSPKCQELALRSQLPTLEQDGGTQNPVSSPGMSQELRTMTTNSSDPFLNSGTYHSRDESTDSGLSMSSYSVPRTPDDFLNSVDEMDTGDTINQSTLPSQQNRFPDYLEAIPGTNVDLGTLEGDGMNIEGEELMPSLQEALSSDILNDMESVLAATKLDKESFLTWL

T2 sequence (Q12778 whole entry, species assumed): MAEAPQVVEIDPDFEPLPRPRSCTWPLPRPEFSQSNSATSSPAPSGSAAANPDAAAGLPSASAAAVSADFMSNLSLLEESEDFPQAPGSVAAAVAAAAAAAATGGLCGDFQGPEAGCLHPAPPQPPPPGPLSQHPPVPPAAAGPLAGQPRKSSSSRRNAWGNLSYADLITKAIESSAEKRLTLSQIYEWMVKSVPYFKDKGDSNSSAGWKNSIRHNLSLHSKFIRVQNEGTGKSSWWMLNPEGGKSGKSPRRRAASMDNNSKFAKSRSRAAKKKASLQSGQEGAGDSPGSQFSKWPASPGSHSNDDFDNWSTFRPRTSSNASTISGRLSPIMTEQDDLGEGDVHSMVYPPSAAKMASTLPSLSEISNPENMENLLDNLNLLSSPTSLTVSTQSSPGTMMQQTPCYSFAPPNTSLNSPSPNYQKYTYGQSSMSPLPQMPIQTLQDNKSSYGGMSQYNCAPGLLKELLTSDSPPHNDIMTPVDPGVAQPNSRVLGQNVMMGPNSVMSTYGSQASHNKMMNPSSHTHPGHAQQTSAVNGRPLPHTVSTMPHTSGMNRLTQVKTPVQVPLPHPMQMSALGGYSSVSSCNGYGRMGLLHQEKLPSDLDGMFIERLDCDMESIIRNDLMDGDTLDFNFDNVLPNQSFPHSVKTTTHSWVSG
T1 sequence (Q13148 whole entry): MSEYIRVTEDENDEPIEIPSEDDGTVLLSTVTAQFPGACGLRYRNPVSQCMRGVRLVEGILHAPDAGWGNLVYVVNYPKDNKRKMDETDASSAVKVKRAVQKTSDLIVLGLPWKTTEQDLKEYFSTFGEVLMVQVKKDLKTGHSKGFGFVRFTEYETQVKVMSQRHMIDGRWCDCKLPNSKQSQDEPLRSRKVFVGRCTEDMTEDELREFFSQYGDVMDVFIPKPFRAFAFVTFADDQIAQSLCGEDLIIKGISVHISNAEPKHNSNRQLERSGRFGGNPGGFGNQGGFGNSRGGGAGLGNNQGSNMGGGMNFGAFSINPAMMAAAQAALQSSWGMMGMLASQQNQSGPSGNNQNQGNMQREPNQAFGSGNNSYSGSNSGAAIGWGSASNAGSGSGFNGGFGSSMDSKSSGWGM

co-precipitation of TDP-43 (TDP-43): co-precipitated TDP-43
pull down of FOXO1 (FOXO1): failed to pull down
pull down of YES-associated protein (YAP) [1]: failed to pull down
Substance: Fx: construct including only α-helix 6 (αF) of 14-3-3θ, 30 amino acid sequence SEQ ID NO:2 (amino acids 135-164) (GDDRKQTIDNSQGAYQEAFDISKKEMQPTH; V5 tag in some forms; listed as Homo sapiens)
